Consider one substance from patent US20060104974A1.

Assay [1] has as its target Hu-CD147IgG2 fusion protein (human). The assay is described as follows: BIAcore, surface Hu rCD147-IgG 791 RU.
The target in another assay is CD147 on cells (human) (UniProt P35613). Nature of the assay: two-colour FACS of activated lymphocytes, CBL against CD25.
CD147 on cells (human), sequence (P35613 other isoform, or with tags, fused parts or gaps limits assumed): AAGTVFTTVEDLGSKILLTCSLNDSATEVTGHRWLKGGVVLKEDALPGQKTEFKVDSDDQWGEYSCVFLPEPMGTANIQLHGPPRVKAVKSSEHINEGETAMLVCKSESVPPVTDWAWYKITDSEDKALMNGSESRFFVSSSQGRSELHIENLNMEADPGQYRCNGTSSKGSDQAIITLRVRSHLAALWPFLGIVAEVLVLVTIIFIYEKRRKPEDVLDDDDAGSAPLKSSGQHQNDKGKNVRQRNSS

ABX-CBL antibody, sequence (HC): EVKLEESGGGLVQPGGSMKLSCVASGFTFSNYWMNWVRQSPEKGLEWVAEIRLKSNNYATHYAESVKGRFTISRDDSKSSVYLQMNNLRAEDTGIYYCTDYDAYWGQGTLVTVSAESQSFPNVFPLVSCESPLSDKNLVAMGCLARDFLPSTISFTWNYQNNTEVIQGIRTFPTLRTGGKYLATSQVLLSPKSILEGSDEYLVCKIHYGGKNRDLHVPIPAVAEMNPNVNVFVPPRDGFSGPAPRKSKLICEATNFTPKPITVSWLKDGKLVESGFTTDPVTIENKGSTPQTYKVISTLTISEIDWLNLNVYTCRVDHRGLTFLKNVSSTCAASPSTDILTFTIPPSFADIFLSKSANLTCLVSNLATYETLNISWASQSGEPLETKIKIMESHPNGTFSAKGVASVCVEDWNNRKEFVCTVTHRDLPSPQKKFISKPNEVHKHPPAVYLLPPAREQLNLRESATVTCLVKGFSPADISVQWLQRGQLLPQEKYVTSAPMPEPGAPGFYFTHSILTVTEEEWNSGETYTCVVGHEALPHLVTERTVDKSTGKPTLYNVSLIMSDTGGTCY
ABX-CBL antibody, sequence (LC): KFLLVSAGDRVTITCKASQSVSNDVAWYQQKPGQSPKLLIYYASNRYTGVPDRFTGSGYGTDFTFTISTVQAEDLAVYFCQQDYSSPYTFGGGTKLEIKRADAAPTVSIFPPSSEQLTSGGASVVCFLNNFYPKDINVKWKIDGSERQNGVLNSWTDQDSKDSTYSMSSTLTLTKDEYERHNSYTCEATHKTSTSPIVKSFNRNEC

The term Kd denotes the concentration at which binding is half-saturated. Low readings indicate a tighter complex, high ones a looser complex. What is called koff is the first-order rate constant of dissociation. Higher therefore signals fast dissociation. The term kon denotes the rate constant with which the complex forms. As for ABX-CBL antibody, in assay [1], the Ka was 1.39e+09 M⁻¹, the dissociation constant Kd worked out at 0.518 nM, the koff amounted to 0.000376 s⁻¹ and the kon came out at 725000 M⁻¹ s⁻¹. In the assay with CD147 on cells (human), this substance yielded a % of cells in quadrant CBL negative / CD25 negative of 29.6%, a % of cells in quadrant CBL negative / CD25 positive of 1.6%, a % of cells in quadrant CBL positive / CD25 negative of 18.9% and a % of cells in quadrant CBL positive / CD25 positive of 50%.
